Assay [1] has as its target E. coli 70S ribosome particle (E. coli). In words: ITC, 30 °C, peptide titrated into E. coli 70S ribosome. (ITC needs no label: the signal is the heat of the interaction.)
For assay [2] the target is unchanged. In words: ITC, 30 °C, E. coli ribosome.
The target of assay [3] is E. coli sliding clamp (DnaN protein, β subunit of DNA polymerase III) (E. coli) (UniProt P0A988). In words: cell-based or functional assay.

Square brackets hold non-standard residues; d marks the D form. Primed or numbered codes have the meaning given here. Ends that are not written are not given here. FITC′ = fluorescein isothiocyanate label; Cha = N[C@@H](CC1CCCCC1)C(=O)O

Sequence of E. coli sliding clamp (DnaN protein, β subunit of DNA polymerase III) (E. coli) (P0A988 whole entry): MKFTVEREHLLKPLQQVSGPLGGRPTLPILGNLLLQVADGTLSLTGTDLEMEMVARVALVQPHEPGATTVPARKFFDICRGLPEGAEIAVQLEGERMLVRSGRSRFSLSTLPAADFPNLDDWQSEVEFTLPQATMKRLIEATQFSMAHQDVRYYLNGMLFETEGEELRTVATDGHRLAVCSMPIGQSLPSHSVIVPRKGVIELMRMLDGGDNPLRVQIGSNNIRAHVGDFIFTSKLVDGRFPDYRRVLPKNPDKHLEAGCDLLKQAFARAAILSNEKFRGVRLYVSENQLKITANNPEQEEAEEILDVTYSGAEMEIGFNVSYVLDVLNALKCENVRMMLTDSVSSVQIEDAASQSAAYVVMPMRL

The term Kd denotes the constant that tells how readily two partners part at equilibrium. High values mean lower affinity, low ones higher affinity. In assay [1], VDKGSYLPRPTPPRPIYNRNGPR[Cha]FQLD-OH [P188 (Py-P7Scr), …haGQLD-OH] registered a -TΔS of 5.5 kcal/mol, a Kd of 75.8 nM, a ΔG of -9.89 kcal/mol and a ΔH of -15.4 kcal/mol.
As for {FITC′}-VDKPPYLPRPRPPR[dR]IYN[dR]-NH2 (not fully specified) [CA3-124 (FITC-Onc112), FITC-…rIYNr-NH2], in assay [2], the Kd worked out at 7.7 µM, the ΔG was -7.1 kcal/mol and the ΔH is -22.6 kcal/mol.
{FITC′}-KVDKPPYLPRPRPPR[dR]IYN[dR]GPRQ[Cha]DLF-OH (not fully specified) [CM1-92 (FITC-Onc112-P7), FITC-K-…rIYNrGPRQChaDLF-OH]: in assay [3], the MIC (µM), E. coli ATCC 25922, Mueller-Hinton broth is 16 µM.
